In data set [1] the target is recombinant human LAP (R & D) (UniProt P01137).
Data set [2] concerns the target plasmin/plasma kallikrein. Put plainly: cell-based or functional assay.

recombinant human LAP (R & D), sequence (P01137 whole entry, looked up): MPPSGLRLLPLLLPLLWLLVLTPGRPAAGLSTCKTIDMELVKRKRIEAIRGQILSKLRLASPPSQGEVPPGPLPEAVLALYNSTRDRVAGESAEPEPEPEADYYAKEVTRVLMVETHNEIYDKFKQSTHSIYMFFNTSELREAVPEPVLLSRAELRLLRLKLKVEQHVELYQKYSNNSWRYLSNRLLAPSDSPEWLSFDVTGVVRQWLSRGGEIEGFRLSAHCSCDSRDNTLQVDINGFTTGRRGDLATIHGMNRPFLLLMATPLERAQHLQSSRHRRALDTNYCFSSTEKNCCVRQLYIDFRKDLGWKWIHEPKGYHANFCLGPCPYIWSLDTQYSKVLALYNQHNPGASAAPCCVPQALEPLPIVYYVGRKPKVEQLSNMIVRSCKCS

With plasma kallikrein (SIGMA), the “LAP cleavage reaction (western blot: LAP 41 kDa, LAP degradation product 38 kDa)” value in data set [1] is “attenuation of LAP band found in panel A, and generation of LAP degradation product found in panel B”.

B1: QP peptide (Gln-Ile-Leu-Ser-Lys-Leu-Arg-Leu-Ala-Ser-Pro) (peptide)
peptide: QILSKLRLASP
B1: the inhibition of generation of active TGF-β in conditioned medium of rat hepatic stellate cells (ELISA, peptide 0.5 mM) in data set [2] turned out to be 55%.

B2: T200 peptide (Thr-Gly-Val-Val-Arg-Gln-Trp-Leu-Ser-Arg-Gly) (peptide)
peptide: TGVVRQWLSRG
With B2, in data set [2], the amount of active TGF-β generated into the conditioned medium, relative to control was 74 % of control.

B3: QPQ peptide (peptide)
peptide: QILSQQQQASP
As to B3, the inhibition of generation of active TGF-β in conditioned medium of rat hepatic stellate cells (ELISA, peptide 0.5 mM) in data set [2] was 90%.

The record behind these values is patent US20080280827A1.
